From paper PMC8460140 (2021)

Molecular target: T1, His6-tagged CB1R-CTD (amino acids 400-472), labeled with 5-IAF (UniProt P21554 400-472, labeled with 5-(iodoacetamido)fluorescein (5-IAF); labeled residue not stated)
T1 chain: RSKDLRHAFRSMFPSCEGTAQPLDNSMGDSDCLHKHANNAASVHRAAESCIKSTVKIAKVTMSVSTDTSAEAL
Assay: FP

B1: His6-tagged BiP-IR (amino acids 497-654), recombinant (domain or fragment)
chain: IEVTFEIDVNGILRVTAEDKGTGNKNKITITNDQNRLTPEEIERMVNDAEKFAEEDKKLKERIDTRNELESYAYSLKNQIGDKEKLGGKLSSEDKETMEKAVEEKIEWLESHQDADIEDFKAKKKELEEIVQPIISKLYGSAGPPPTGEEDTAEKDEL
Binder B1 has a Kd of 17.3 µM.

B2: His6-tagged BiP, recombinant (natural protein)
chain: not shown
B2 showed a Kd of 17.7 µM.
